One substance from patent US20140314744A1 can be followed below.

This assay concerns the target Recombinant human Fc-tagged MCAM IgG1-2A (human) (UniProt P43121). Description: SPR (Biacore T200), steady state, MCAM IgG1-2A captured by anti-Fc IgG, laminin in solution.

Chain of Recombinant human Fc-tagged MCAM IgG1-2A (human) (P43121 19-242): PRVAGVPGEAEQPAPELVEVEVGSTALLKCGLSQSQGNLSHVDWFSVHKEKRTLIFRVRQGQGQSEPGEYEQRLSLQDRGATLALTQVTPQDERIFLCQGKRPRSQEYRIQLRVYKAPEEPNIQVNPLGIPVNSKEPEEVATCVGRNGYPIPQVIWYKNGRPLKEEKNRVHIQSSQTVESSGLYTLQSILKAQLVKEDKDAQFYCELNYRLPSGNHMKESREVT

“Recombinant human laminin 411 (Biolamina) (from UniProt Q16363 25-1823; P07942 22-1786; P11047 34-1609) (ligand)”: the dissociation constant Kd is 66 nM.

As usually defined, the Kd is the concentration at which binding is half-saturated.
